Here are results for one molecule from patent US20260185108A1 (Johns Hopkins, published 2026).

Residue numbers refer to the chain shown, from its start.

For experiment [1], the target named is T1, CD63/Y235A (on F/YA24 cells) (UniProt P08962 2-238, limits assumed).
T1 construct: whole, on cells; F/YA24 cells also carry the endogenous CD63 of 293F cells; also called mutant form of CD63
T1 sequence (looked up): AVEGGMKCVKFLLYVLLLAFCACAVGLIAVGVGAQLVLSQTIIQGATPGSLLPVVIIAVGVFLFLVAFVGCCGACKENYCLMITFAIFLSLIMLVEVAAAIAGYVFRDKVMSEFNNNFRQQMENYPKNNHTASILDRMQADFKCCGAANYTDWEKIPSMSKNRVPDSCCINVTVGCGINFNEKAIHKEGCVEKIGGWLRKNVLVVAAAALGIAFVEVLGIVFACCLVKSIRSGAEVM
Kind of experiment: flow cytometry of CP05-Cy5 on F/YA24 cells against 293F and 293F/CD63-/- cells. Here is the method: (§1) For measurement of surface CD63 abundance and Cy5-CP05 peptide binding, cells were washed in HBSS, released from tissue culture plates using trypsin/EDTA solution, and resuspended at a concentration of 1×10^7 cells per ml in HBSS. Cell suspensions were maintained on ice, diluted to a concentration of 1×10^6 cells per ml, incubated with either (i) fluorescently labeled anti-CD63 antibody (catalog no.: 353006; BioLegend) or (ii) CY5-labeled CP05 peptide (NH2-[…](K/Cy5)-amide; Vivitide; molecular weight=[…]). Following the binding reaction, cells were washed five times in PBS and then examined by flow cytometry on a Beckman CytoFlex flow cytometer set at the appropriate excitation and emission wavelengths. The relative brightness was determined for thousands of individual cells in each cell line using Beckman CytExpert software (version 2.3.1.22) to calculate average brightness and CV as well as to generate scatter plots and histograms.
(§2) To determine whether these mutations led to a drop in the cell surface expression of CD63, cell lines were interrogated: the 293F/CD63^{-/-} cell line, the parental 293F cell line, and the F/YA24 cell line by flow cytometry, using a commercially available fluorescently tagged monoclonal anti-CD63 antibody. […]
Background: In flow cytometry, cells or beads pass a laser one at a time.

The target in experiment [2] is T2, CD63 (endogenous, on WT 293F cells) (UniProt P08962 2-238, limits assumed).
T2 construct: whole, on cells; Compared with the 293F/CD63-/- knockout line as the negative control; also called WT CD63
T2 sequence (looked up): T1 sequence (looked up) with A234Y
Nature of the experiment: flow cytometry of CP05-Cy5 on WT 293F cells against 293F/CD63-/- cells. Here is the method:
as §1, §2

B1: Cy5-labeled CP05 peptide (NH2-CRHSQMTVTSRL(K/Cy5)-amide) (peptide)
peptide: H-CRHSQMTVTSRLK(Cy5)-NH2
notes: Synthetic peptide (Vivitide); the labeled peptide used in the assay has one more Lys(Cy5) and a C-terminal amide; also called CP05-Cy5; Cy5-CP05 peptide
Consider B1, for which the binding result in experiment [1] is “no binding (tested: 0.34 µM and 3.4 µM CP05-Cy5)”; in experiment [2], “no binding (tested: 0.34 µM and 3.4 µM CP05-Cy5)”.
